This is an account of results in publication PMC3729259 (The Prostate, 2010).

For the assay, the target named is Gal4-PAX6 fusion protein (human, UniProt P26367 1-422). Kind of assay: two-hybrid.
Sequence of Gal4-PAX6 fusion protein (P26367 whole entry, the tested form may be a part): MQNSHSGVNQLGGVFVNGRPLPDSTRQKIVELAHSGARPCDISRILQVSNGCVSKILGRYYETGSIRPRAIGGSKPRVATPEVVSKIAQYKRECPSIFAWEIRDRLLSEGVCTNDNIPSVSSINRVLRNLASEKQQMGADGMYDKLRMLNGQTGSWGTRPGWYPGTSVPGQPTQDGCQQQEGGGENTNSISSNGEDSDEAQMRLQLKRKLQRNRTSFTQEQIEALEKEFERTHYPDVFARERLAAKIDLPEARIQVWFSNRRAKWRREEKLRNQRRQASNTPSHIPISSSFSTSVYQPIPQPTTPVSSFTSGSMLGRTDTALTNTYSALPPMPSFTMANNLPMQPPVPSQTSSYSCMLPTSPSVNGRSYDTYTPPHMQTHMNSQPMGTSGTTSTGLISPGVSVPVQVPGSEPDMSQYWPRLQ

B1: VP16-AR fusion protein (receptor, UniProt P10275 1-920, looked up)
chain: MEVQLGLGRVYPRPPSKTYRGAFQNLFQSVREVIQNPGPRHPEAASAAPPGASLLLLQQQQQQQQQQQQQQQQQQQQQQQETSPRQQQQQQGEDGSPQAHRRGPTGYLVLDEEQQPSQPQSALECHPERGCVPEPGAAVAASKGLPQQLPAPPDEDDSAAPSTLSLLGPTFPGLSSCSADLKDILSEASTMQLLQQQQQEAVSEGSSSGRAREASGAPTSSKDNYLGGTSTISDNAKELCKAVSVSMGLGVEALEHLSPGEQLRGDCMYAPLLGVPPAVRPTPCAPLAECKGSLLDDSAGKSTEDTAEYSPFKGGYTKGLEGESLGCSGSAAAGSSGTLELPSTLSLYKSGALDEAAAYQSRDYYNFPLALAGPPPPPPPPHPHARIKLENPLDYGSAWAAAAAQCRYGDLASLHGAGAAGPGSGSPSAAASSSWHTLFTAEEGQLYGPCGGGGGGGGGGGGGGGGGGGGGGGEAGAVAPYGYTRPPQGLAGQESDFTAPDVWYPGGMVSRVPYPSPTCVKSEMGPWMDSYSGPYGDMRLETARDHVLPIDYYFPPQKTCLICGDEASGCHYGALTCGSCKVFFKRAAEGKQKYLCASRNDCTIDKFRRKNCPSCRLRKCYEAGMTLGARKLKKLGNLKLQEEGEASSTTSPTEETTQKLTVSHIEGYECQPIFLNVLEAIEPGVVCAGHDNNQPDSFAALLSSLNELGERQLVHVVKWAKALPGFRNLHVDDQMAVIQYSWMGLMVFAMGWRSFTNVNSRMLYFAPDLVFNEYRMHKSRMYSQCVRMRHLSQEFGWLQITPQEFLCMKALLLFSIIPVDGLKNQKFFDELRMNYIKELDRIIACKRKNPTSCSRRFYQLTKLLDSVQPIARELHQFTFDLLIKSHMVSVDFPEMMAEIISVQVPKILSGKVKPIYFHTQ
Consider B1, for which the “fold luciferase activity (against cells with pGal4 and pVP16)” value was found to be 4 fold.
